These results are taken from article PMC9127807, “Echinocandins Localized to the Target-Harboring Cell Surface Are Not Degraded but Those Entering the Vacuole Are” (ACS Chemical Biology, 2022).

SMILES strings stand for the structures. Several values for one entry are separate records, joined by “and”; a condition that tells them apart may be missing. Equal entries are not always repeated. Where two headings read alike, the source gives them in different places.

In data set [1] the test system is C. albicans SC5314 cell lysate. Particulars: incubated with lysate of C. albicans SC5314 in buffer for 24 h; RP-HPLC.
Experimental: C. albicans SC5314 cells were streaked from glycerol stocks onto YPAD agar plates and grown for 24 h at 30 °C. Colonies were grown in tubes in 3 mL of YPAD broth for 24 h at 30 °C with shaking. Cultures were diluted 1:50 and incubated in 5 mL of YPAD broth for 3 h at 30 °C with shaking until log-phase growth was observed. Cultures were then centrifuged (4000 rpm, 3 min), washed with PBS buffer, and resuspended in 1 mL of PBS buffer or YPAD. Cells were incubated with TMR-based probes (1 or 3) at a final concentration of 10 μM at 30 °C with shaking in the dark for 24 h. After washing three times with PBS, cells were resuspended in 75 μL of TNE buffer (10 mM Tris, 100 mM NaCl, and 1 mM ethylenediaminetetraacetic acid, pH 8.0) in a 1.5 mL Eppendorf tube, and 0.5 mm diameter beads were added to the yeast solution. The mixture was agitated on a vortex at maximum speed for 5 min. […] The samples were analyzed using analytical reverse-phase HPLC at a 550 nm wavelength. HPLC conditions: mobile phase: acetonitrile in H2O (containing 0.1% trifluoroacetic acid (v/v)), gradient from 10 to 90%; flow rate: 1 mL/min; absorbance wavelength: 550 nm. […] The percentages of intact echinocandin were determined using the area calculation function available in the Hitachi Primaide Software and are presented as means (two replicates) ± standard deviation (SD).
A further data set deals with C. albicans SC5314 cells. As to conditions: for percentage degraded: 24 h, 10 μM, 30 °C, RP-HPLC of lysates.

Experimental for C. albicans SC5314 cells: C. albicans SC5314 cells were streaked from glycerol stocks onto YPAD agar plates and grown for 24 h at 30 °C. Colonies were grown in tubes in 3 mL of YPAD broth for 24 h at 30 °C with shaking. Cultures were diluted 1:50 and incubated in 5 mL of YPAD broth for 3 h at 30 °C with shaking until log-phase growth was observed. Cultures were then centrifuged (4000 rpm, 3 min), washed with PBS buffer, and resuspended in 1 mL of PBS buffer or YPAD. Cells were incubated with TMR-based probes (1 or 3) at a final concentration of 10 μM at 30 °C with shaking in the dark for 24 h. After washing three times with PBS, cells were resuspended in 75 μL of TNE buffer (10 mM Tris, 100 mM NaCl, and 1 mM ethylenediaminetetraacetic acid, pH 8.0) in a 1.5 mL Eppendorf tube, and 0.5 mm diameter beads were added to the yeast solution. The mixture was agitated on a vortex at maximum speed for 5 min. Next, 200 μL of 2% Triton X-100 in TNE buffer (v/v) was added to the agitated solution, and then the mixture was sonicated for 15 min. To clarify the yeast lysate, the mixture was centrifuged twice (16 000g, 20 min), and the supernatant was removed and filtered using a 0.22 μm syringe filter. The samples were analyzed using analytical reverse-phase HPLC at a 550 nm wavelength. HPLC conditions: mobile phase: acetonitrile in H2O (containing 0.1% trifluoroacetic acid (v/v)), gradient from 10 to 90%; flow rate: 1 mL/min; absorbance wavelength: 550 nm. Each sample was tested in two independent sets of experiments. The percentages of intact echinocandin were determined using the area calculation function available in the Hitachi Primaide Software and are presented as means (two replicates) ± standard deviation (SD).

Take `CC[C@H](C)C[C@H](C)CCCCCCCCC(=O)N[C@H]1C[C@@H](O)[C@@H](NCCN)NC(=O)[C@@H]2[C@@H](O)CCN2C(=O)[C@H]([C@H](O)CCN)NC(=O)[C@H]([C@H](O)[C@@H](O)c2ccc(OCc3cn(CCCNC(=O)c4ccc(-c5c6ccc(=[N+](C)C)cc-6oc6cc(N(C)C)ccc56)c(C(=O)[O-])c4)nn3)cc2)NC(=O)[C@@H]2C[C@@H](O)CN2C(=O)[C@H]([C@@H](C)O)NC1=O` [Probe 1]: the percentage intact in data set [1] was 78% and ~80%; with C. albicans SC5314 cells (control: 5 min incubation with the cells in PBS, RP-HPLC), about 80%. Besides, the percentage degraded entry in the data set on C. albicans SC5314 cells (cells in nutrient-free PBS buffer) is listed as “approximately 70%”; in the data set on C. albicans SC5314 cells (cells in nutrient-rich YPAD medium), “approximately 40%”.
